12 molecules from US9994616B2, “c-Met protein agonist” (The University of Tokyo, priority 2013, dated 2018) can be followed below.

Where a SMILES comes first, the peptide text is derived from it. Bridges are numbered along the chain shown (N, C = ends). Roman numbers before positions name the chains, in order. Where no end group is shown, it is not given here. [ ]: non-standard residue; d: D form. fluorescein = fluorescein fluorescent label attached to the peptide; NMeC = CN[C@@H](CS)C(=O)O; βAla = NCCC(=O)O A value given as a limit tells only on which side of the number the result lay.

One data set deals with c-Met-Fc (Homo sapiens, UniProt P08581). Kind of data set: Binding ability by surface plasmon resonance (SPR, Biacore). Here is the method: Binding ability of the thioether macrocyclic peptide was evaluated by SPR measurement using Biacore (GE Healthcare).
As a sensor chip, Sensor Chip CM5 was used and an anti-IgG antibody was immobilized on a measurement lane and a control lane by using Human Antibody Capture Kit.
On the measurement lane was immobilized c-Met-Fc, while on the control lane was immobilized Fc protein.
As a running buffer, HBS-EP+ buffer containing 0.1% DMSO was used and a dissociation constant of the thioether macrocyclic peptide was calculated at 5 different concentrations by using the single-kinetics method.

A short description of data set [1]: Stability of thioether macrocyclic peptide in human serum pool (LC-MS). Format: in vitro ADME. Particulars: human serum pool, 37° C., 1 μM. Here is the method: A DMSO solution of the thioether macrocyclic peptide to be evaluated was dissolved in a human serum pool to give a concentration of 1 μM. The human serum pool containing the thioether macrocyclic peptide thus prepared was incubated at 37° C.
After an elapse of the evaluation time, the human serum pool containing the thioether macrocyclic peptide was placed on ice and a peptide serving as an internal standard was added and mixed to give a concentration of 1 μM. The resulting mixture was added to a solid-phase extraction column (Hyper Sep SPE column, Thermo Scientific), washed with a 5% aqueous acetonitrile solution containing 0.1% TFA, and then purified by eluting with a 70% aqueous acetonitrile solution containing 0.1% TFA.
The molecular weight of the purified product was analyzed using LC-MS and the cleavage site in the serum was identified. In addition, the thioether macrocyclic peptide which had remained without being cleaved was quantitatively determined by comparing an amount relative to the internal standard at every incubation time.

A further data set concerns the target T1, c-Met (Homo sapiens, UniProt P08581).
T1 construct: endogenous in cells; host or cells: EHMES-1 (human mesothelioma)
Kind of data set: Activity of dimeric peptide by ELISA (c-Met phosphorylation level in EHMES-1 cells). The data set is classed as cell-based. Particulars: for Activity (c-Met phosphorylation level by ELISA): Table 12, EHMES-1 cells, 10 minutes stimulation; for c-Met phosphorylation: Table 13. The method, then: Each dimeric peptide was added to human EHMES-1 cells and the mixture was incubated for 10 minutes to stimulate the cells.
As a control experiment, a recombinant human HGF protein was added and the mixture was incubated for 10 minutes to stimulate cells.
A phosphorylation level of c-Met was quantitatively analyzed using ELISA.

Another data set deals with human Hcc-827 cells. Description: Cell growth of Iressa-inhibited Hcc-827 cells (MTS assay). The data set is classed as cell-based. The note with it: Table 13, Hcc-827 cells inhibited by Iressa. The method, then: Dimeric peptides were added to human Hcc-827 cells whose cell growth was inhibited by the addition of Iressa and the resulting mixture was cultured to activate the cell growth ability via a c-Met signaling pathway. The cell count of the thus-cultured cells was quantitatively determined by the assay using MTS (3-(4,5-dimethylthiazol-2-yl)-5-(3carboxymethoxyphenyl)-2-(4-sulphophenyl)-2H-tetrazolium, inner salt).

The next data set relates to human HuCCT1 cells. Description: Cell migration of HuCCT1 cells on pore-containing plate. Particulars: Table 13. The data set is classed as cell-based. The method, then: In addition, human HuCCT1 cells were seeded on a pore-containing plate and cultured in a medium mixed with each of the dimeric peptides to evaluate activation of cell migration ability.
Data set [2] concerns human c-Met expressing cells (human SNU-638 cells). Description: Localization of fluorescein-modified peptides on c-Met expressing cells (confocal microscopy). Format: cell-based. Particulars: 1 μM fluorescein peptide, FIG. 2A. The method, then:
To human c-Met expressing cells (human SNU-638 cells) or human c-Met non-expressing cells (human SNU-216 cells) cultured on a glass-bottom dish were added a RPMI1640 medium containing 1 mg/L of Hoechst 33342, a nuclear staining reagent, an anti-human c-Met antibody, and 1 uM of L5-2-fluorescein, D4-3-fluorescein, D5-4-fluorescein, D4-3NMe-fluorescein, or D4-3scr-fluorescein and the resulting mixture was incubated in 5% CO2 at 37° C. for 5 minutes. Then, a RPMI1640 medium containing an HRP-anti-rat secondary antibody and 1 μM of L5-2-fluorescein, D4-3-fluorescein, D5-4-fluorescein, D4-3NMe-fluorescein, or D4-3scr-fluorescein was added and the resulting mixture was incubated in 5% CO2 at 37° C. for 5 minutes.
The cells were washed three times with a D-MEM medium and were microscopically observed in a new RPMI1640 medium. The localization of the peptide was observed using a confocal fluorescence microscope for the microscopic observation.

[3] abbreviates: Table 11, monomer and dimeric peptides.

c-Met-Fc, sequence (P08581 with tags, fused parts or gaps limits assumed): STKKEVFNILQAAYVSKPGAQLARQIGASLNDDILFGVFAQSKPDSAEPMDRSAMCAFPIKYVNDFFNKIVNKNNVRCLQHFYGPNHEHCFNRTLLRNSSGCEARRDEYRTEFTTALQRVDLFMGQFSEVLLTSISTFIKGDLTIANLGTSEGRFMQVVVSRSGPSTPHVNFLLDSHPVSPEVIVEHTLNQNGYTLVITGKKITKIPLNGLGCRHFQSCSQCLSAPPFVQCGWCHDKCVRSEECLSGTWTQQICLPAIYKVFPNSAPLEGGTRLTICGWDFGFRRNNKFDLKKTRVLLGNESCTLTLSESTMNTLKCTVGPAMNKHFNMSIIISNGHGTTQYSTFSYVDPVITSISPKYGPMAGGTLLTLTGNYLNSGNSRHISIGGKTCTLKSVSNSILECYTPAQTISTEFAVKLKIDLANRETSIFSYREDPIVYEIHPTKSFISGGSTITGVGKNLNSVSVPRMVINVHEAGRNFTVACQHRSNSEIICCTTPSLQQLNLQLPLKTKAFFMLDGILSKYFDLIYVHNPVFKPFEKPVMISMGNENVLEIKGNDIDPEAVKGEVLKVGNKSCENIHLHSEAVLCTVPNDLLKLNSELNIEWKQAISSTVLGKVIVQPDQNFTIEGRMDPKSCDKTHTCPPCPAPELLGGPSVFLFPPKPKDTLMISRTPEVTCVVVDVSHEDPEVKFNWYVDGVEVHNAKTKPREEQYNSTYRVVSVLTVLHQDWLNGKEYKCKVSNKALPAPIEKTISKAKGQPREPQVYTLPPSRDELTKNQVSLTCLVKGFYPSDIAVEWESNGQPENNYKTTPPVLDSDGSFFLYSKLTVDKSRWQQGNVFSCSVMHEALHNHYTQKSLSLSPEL
c-Met-Fc, sequence (P08581 25-307 limits assumed): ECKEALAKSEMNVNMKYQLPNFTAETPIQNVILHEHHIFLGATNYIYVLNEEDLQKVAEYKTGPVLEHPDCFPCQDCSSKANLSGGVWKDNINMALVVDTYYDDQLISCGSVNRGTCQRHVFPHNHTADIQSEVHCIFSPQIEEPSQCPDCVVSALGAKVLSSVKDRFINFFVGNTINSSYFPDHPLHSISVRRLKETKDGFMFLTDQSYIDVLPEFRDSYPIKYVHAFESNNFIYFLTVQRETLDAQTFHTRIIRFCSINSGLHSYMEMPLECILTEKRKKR
T1 sequence (P08581 25-1390): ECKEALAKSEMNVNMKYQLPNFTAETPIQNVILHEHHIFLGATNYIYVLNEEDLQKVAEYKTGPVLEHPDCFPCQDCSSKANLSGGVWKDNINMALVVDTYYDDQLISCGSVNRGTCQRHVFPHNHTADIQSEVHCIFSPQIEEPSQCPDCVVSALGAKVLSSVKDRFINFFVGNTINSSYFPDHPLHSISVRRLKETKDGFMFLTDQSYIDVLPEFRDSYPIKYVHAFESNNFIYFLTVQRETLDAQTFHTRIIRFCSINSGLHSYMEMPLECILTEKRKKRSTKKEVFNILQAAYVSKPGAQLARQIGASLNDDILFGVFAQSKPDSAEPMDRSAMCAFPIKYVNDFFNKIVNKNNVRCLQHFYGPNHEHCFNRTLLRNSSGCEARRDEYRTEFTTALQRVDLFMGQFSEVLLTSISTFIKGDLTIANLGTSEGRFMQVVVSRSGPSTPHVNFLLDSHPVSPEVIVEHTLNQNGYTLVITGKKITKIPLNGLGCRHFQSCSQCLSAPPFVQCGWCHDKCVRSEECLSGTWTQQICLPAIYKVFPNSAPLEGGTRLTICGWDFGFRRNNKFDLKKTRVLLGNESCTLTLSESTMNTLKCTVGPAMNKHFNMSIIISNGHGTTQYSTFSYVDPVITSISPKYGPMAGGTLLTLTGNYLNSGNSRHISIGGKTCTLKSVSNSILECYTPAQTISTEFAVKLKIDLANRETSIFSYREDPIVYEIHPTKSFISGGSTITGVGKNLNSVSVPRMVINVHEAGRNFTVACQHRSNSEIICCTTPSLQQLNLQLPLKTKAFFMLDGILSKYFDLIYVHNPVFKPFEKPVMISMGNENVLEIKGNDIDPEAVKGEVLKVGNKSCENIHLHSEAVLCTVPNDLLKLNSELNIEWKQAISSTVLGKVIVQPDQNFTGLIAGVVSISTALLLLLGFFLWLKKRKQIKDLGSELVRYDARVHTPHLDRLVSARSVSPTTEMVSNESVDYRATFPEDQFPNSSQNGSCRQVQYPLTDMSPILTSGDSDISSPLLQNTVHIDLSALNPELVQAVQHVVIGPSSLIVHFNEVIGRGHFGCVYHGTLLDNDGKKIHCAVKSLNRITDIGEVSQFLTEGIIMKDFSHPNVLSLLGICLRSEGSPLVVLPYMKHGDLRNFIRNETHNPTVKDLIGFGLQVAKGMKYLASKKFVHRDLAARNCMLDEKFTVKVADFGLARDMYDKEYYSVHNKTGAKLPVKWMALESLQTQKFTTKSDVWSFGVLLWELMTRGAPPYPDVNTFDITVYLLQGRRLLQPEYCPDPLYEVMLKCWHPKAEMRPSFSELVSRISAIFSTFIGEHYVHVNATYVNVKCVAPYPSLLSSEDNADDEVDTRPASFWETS

Turning to `CC(C)C[C@@H]1NC(=O)[C@H](CC(N)=O)NC(=O)[C@H](Cc2c[nH]c3ccccc23)NC(=O)[C@H](C(C)C)NC(=O)[C@H](CCC(=O)O)NC(=O)[C@H](Cc2c[nH]cn2)NC(=O)[C@H]([C@@H](C)O)NC(=O)[C@H](CCCNC(=N)N)NC(=O)[C@H](CCCNC(=N)N)NC(=O)[C@H](CC(N)=O)NC(=O)[C@H](Cc2ccccc2)NC(=O)[C@H](CCC(N)=O)NC(=O)[C@H](CCCNC(=N)N)NC(=O)[C@@H](Cc2ccc(O)cc2)NC(=O)CSC[C@@H](C(=O)NCC(N)=O)N(C)C(=O)[C@H](CC(=O)O)NC1=O` [Peptide N16] ({CH2CO}-[dY]RQFNRRTHEVWNLD[NMeC]G-NH2; thioether N-16; C-terminus assumed), the kd was 1.0 10^−2 s^−1 at c-Met-Fc (Table 8, c-Met-Fc) and 1.0 10^−2s^−1 at c-Met-Fc (Table 9, c-Met-Fc). Further, the kon at c-Met-Fc (Table 8, c-Met-Fc, read-out: ka) came to 980000 M⁻¹ s⁻¹. Also, the ka at c-Met-Fc (Table 9, c-Met-Fc) was 9.8 10^5 M^−1s^−1. Moreover, in data set [1] (Table 8, 1 h), the amount remaining at 1 h, 1 μM amounted to 12%. Also, the fraction remaining at 4 h, 1 μM in data set [1] (Table 9, 4 h) was under 12%.
Take “D4-3 BMH: dimeric peptide: two D4-3 macrocycles linked through C-terminal Cys by BMH linker ({CH2CO}-[dY]RQFNRRTHEVWNLDCGC; thioether N-16; not fully specified (residue 18); also: dimer: two copies joined by BMH, linker at 18 via BMH, other end not in the chain)”: in the data set with c-Met-Fc (setting [3]), the ka is 2.0 10^6 M^−1s^−1 and the kd is listed as 0.091 10^−2 s^−1. Also, in the data set with c-Met, the “Activity (c-Met phosphorylation level by ELISA)” value (“Activity” for short) is listed as “Low” and the c-Met phosphorylation entry is reported as “Promote”. Further, in the data set with human Hcc-827 cells, the Cell growth entry was “Activate”.
On to “D4-3 Bis-MAL-PEG11: dimeric peptide: two D4-3 macrocycles linked through C-terminal Cys by Bis-MAL-PEG11 linker ({CH2CO}-[dY]RQFNRRTHEVWNLDCGC; thioether N-16; not fully specified (residue 18); also: dimer: two copies joined by Bis-MAL-PEG11, linker at 18 via Bis-MAL-PEG11, other end not in the chain)”, for which, in the data set with c-Met-Fc (setting [3]), the ka was 1.2 10^6 M^−1s^−1 and the kd is on record as 0.11 10^−2 s^−1. Further, in the data set with c-Met, the “Activity” value is listed as “High” and the c-Met phosphorylation entry is recorded as “Promote”. Besides, the Cell migration entry in the data set with human HuCCT1 cells is reported as “Activate”.
Take “D4-3-fluorescein: Fluorescein-modified D4-3 peptide, fluorescein on the side chain of C-terminal lysine ({CH2CO}-[dY]RQFNRRTHEVWNLDCGK(fluorescein); thioether N-16)”: the “Binding to c-Met expressing cells” value in data set [2] is “colocalized with and bind to”.
“D4-3NMe Bis-MAL-PEG11: dimeric peptide: two D4-3NMe macrocycles linked through C-terminal Cys by Bis-MAL-PEG11 linker ({CH2CO}-[dY]RQFNRRTHEVWNLDCGC; thioether N-16; not fully specified (residue 18); also: two amino acids N-methylated (N6 + N16), dimer: two D4-3NMe macrocycles linked through C-terminal Cys by Bis-MAL-PEG11)”: in the data set with c-Met-Fc (setting [3]), the ka is 0.49 10^6 M^−1s^−1 and the kd is 0.040 10^−2 s^−1. For the same molecule, in the data set with c-Met, the “Activity” value was “High” and the c-Met phosphorylation result is “Promote”. For the same molecule, in the data set with human HuCCT1 cells, the Cell migration result is given as “Activate”.
On to “D4-3NMe-fluorescein: Fluorescein-modified N-methylated D4-3 peptide ({CH2CO}-[dY]RQFNRRTHEVWNLDCGK(fluorescein); thioether N-16; also: two amino acids N-methylated (N6 + N16))”, for which the “Binding to c-Met expressing cells” value in data set [2] is “colocalized with and bind to”.
Consider “D4-3scr BMH: dimer of the negative control peptide D4-3scr with BMH linker ({CH2CO}-YERVNHLFRNQTWDRCGC; thioether N-16 (inferred); also: dimer of D4-3scr with BMH linker) [reference compound]”, for which the KD entry in the data set with c-Met-Fc (setting [3]) was “Not binding”. In the data set with c-Met, the “Activity” value is given as “No” and the c-Met phosphorylation result was “Not promote”. For the same molecule, the Cell migration result with human HuCCT1 cells is “Not activate”.
With “D4-3scr-fluorescein: Fluorescein-modified c-Met-unbinding peptide ({CH2CO}-YERVNHLFRNQTWDRCGK(fluorescein); thioether N-16 (inferred)) [reference compound]”, the “Binding to c-Met expressing cells” value in data set [2] was “does not bind”.
Consider “D5-4 BMH: dimeric peptide: two D5-4 macrocycles linked through C-terminal Cys by BMH linker (peptide 1 {CH2CO}-[dY]WYYAWDQTYKAFPCG; peptide 2 {CH2CO}-[dY]WYYAWDQTYKAFPCG; thioether I:N-I:15, II:N-II:15; not fully specified (C-terminus); also: dimer: two chains joined by BMH through an added C-terminal Cys not in the letters)”, for which, in the data set with c-Met-Fc (setting [3]), the ka is reported as 0.046 10^6 M^−1s^−1 and the kd is listed as 0.055 10^−2 s^−1. For the same molecule, in the data set with c-Met, the “Activity” value is recorded as “High” and the c-Met phosphorylation result is reported as “Promote”. In the data set with human Hcc-827 cells, the Cell growth entry is on record as “Activate”.
Regarding “D5-4 Bis-MAL-PEG11: dimeric peptide: two D5-4 macrocycles linked through C-terminal Cys by Bis-MAL-PEG11 linker (peptide 1 {CH2CO}-[dY]WYYAWDQTYKAFPCG; peptide 2 {CH2CO}-[dY]WYYAWDQTYKAFPCG; thioether I:N-I:15, II:N-II:15; not fully specified (C-terminus); also: dimer: two chains joined by Bis-MAL-PEG11 through an added C-terminal Cys not in the letters)”, in the data set with c-Met-Fc (setting [3]), the ka was 5.3 10^6 M^−1s^−1 and the kd is recorded as 1.1 10^−2 s^−1. Moreover, in the data set with c-Met, the “Activity” value is listed as “High” and the c-Met phosphorylation result is “Promote”. Further, the Cell migration entry in the data set with human HuCCT1 cells is “Activate”.
In the case of “L5-2 BMH: dimeric peptide: two L5-2 macrocycles linked through C-terminal Cys by BMH linker ({CH2CO}-YISWNEFNSPNWRFITCG[βAla]C-NH2; thioether N-17; not fully specified (residue 20); also: dimer: two copies joined by BMH, linker at 20 via BMH, other end not in the chain)”, in the data set with c-Met-Fc (setting [3]), the ka is given as 0.083 10^6 M^−1s^−1 and the kd is 0.054 10^−2 s^−1. Moreover, in the data set with c-Met, the “Activity” value was “Low” and the c-Met phosphorylation result is “Promote”. Also, the Cell growth result in the data set on human Hcc-827 cells is recorded as “Activate”.
“L5-2 Bis-MAL-PEG3: dimeric peptide: two L5-2 macrocycles linked through C-terminal Cys by Bis-MAL-PEG3 linker ({CH2CO}-YISWNEFNSPNWRFITCG[βAla]C-NH2; thioether N-17; not fully specified (residue 20); also: dimer: two copies joined by Bis-MAL-PEG3, linker at 20 via Bis-MAL-PEG3, other end not in the chain)”: in the data set with c-Met-Fc (setting [3]), the ka is recorded as 0.22 10^6 M^−1s^−1 and the kd is 0.042 10^−2 s^−1. In addition, in the data set with c-Met, the “Activity” value was “High” and the c-Met phosphorylation entry was “Promote”. Further, in the data set with human HuCCT1 cells, the Cell migration result is “Activate”.
